From patent US20210230279A1 (University of California, published 2021)
Positions count from the first letter of the chain named.

B1: C6D4-RGD3 (antibody, V domains shown)
VH: QIQLLQSGPELKKPGETVKISCKASGYTFTDYSMHWVKQAPGKGLKWVARINTETGEPTFADDFRGRFAVSLETSASTAYLQINNLKNEDTATYFCAIFYYGRDSWGQGTTLTVSS
VL: DIVMTQSPSSLAVSAGEKVTMSCKSSQSLLGRGDLGRLKKNALAWYQQKPGQSPRLLIYWASTRESGVPDRFTGSGSGTDFTLTISSVQAEDLAVYYCKQSYNLLSFGAGTKLELKR
notes: also called CD64-RGD3; C6 / RGD3
B2: C6D4-RGD3 as rabbit IgG (C6VH expressed with the RGD3 mutant Vk) (antibody, V domains shown)
VH: B1 VH
VL: B1 VL
notes: also called C6D4-RGD3 mutant
B3: C6D4 as rabbit IgG (C6VH expressed with D4 Vk) (antibody, V domains shown)
VH: B1 VH
VL: DIVMTQSPSSLAVSAGEKVTMSCKSSQSLLNSRTRKNYLAWYQQKPGQSPRLLIYWASTRESGVPDRFTGSGSGTDFTLTISSVQAEDLAVYYCKQSYNLLSFGAGTKLELKR
notes: also called wildtype C6D4
B4: C6 VH / RGD2 Vk murine IgG (antibody, V domains shown)
VH: B1 VH
VL: DIVMTQSPSSLAVSAGEKVTMSCKSSQSLLNSGRGDLGNALAWYQQKPGQSPRLLIYWASTRESGVPDRFTGSGSGTDFTLTISSVQAEDLAVYYCKQSYNLLSFGAGTKLELKR
notes: Murine IgG, supernatant of 293 cells; CDRL1 of the C6D4 murine IgG vector replaced by the printed loop, VH not altered; also called C6D4-RGD2; C6RGD2
B5: C6 VH / RGD1 Vk murine IgG (antibody, V domains shown)
VH: B1 VH
VL: B3 VL with N31G, S32R, R33G, T34D, R35L, K36G, Y38A
notes: Murine IgG, supernatant of 293 cells; CDRL1 swap into the C6D4 murine IgG vector, VH not altered; also called C6D4-RGD1; C6RGD1
B6: Humanized C6D4-RGD3 (HuC6D4-RGD3) (antibody, V domains shown)
VH: QIQLVQSGAEVKKPGASVKISCKASGYTFTDYSMHWVRQAPGQGLEWVARINTETGEPTFADDFRGRFTVTLDTSTSTAYLEIRSLRSDDTAVYFCAIFYYGRDTWGQGTTLTVSS
VL: EIVMTQSPATLSVSPGERVTMSCKSSQSLLGRGDLGRLKKNALAWYQQKPGQAPRLLIYWASTRESGVPARFSGSGSGTEFTLTISSVQSEDFAVYYCKQSYNLLSFGQGTVLEIKR
notes: Frameworks and CH1 are human; hinge and CH2-3 are mouse; also called humanized RGD3

Assays:
[1] = target: T1, recombinant human integrin αvβ8 (human, UniProt P06756 31-992; P26012 43-684); assay: cell-based or functional assay
T1 sequence (P06756 31-992 limits assumed, chain 1 of 2): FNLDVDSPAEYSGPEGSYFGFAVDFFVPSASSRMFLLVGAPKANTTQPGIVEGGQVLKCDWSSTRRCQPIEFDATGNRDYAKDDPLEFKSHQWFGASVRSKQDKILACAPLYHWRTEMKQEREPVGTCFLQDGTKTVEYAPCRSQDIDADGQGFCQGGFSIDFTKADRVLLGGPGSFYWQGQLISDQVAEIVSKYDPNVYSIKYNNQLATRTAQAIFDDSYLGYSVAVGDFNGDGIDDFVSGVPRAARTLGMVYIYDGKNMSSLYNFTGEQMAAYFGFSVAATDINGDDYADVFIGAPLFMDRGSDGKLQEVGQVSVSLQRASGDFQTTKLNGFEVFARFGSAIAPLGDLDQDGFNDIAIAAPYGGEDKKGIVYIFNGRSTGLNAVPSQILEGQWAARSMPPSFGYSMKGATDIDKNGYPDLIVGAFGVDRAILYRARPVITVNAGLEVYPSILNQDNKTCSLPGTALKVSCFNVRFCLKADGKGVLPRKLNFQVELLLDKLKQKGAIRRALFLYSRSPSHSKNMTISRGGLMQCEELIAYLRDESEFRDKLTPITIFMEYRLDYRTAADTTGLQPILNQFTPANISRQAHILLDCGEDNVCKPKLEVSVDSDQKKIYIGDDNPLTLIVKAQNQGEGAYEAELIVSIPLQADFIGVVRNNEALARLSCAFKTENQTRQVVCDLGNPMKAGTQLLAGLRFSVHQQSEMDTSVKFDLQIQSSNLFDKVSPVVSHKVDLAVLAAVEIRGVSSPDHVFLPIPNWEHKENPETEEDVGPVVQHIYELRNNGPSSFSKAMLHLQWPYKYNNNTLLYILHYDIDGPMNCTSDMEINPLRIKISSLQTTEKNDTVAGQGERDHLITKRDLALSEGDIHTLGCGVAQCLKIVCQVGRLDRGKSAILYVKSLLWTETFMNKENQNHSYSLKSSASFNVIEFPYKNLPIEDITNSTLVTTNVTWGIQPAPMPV
T1 sequence (P26012 43-684 limits assumed, chain 2 of 2): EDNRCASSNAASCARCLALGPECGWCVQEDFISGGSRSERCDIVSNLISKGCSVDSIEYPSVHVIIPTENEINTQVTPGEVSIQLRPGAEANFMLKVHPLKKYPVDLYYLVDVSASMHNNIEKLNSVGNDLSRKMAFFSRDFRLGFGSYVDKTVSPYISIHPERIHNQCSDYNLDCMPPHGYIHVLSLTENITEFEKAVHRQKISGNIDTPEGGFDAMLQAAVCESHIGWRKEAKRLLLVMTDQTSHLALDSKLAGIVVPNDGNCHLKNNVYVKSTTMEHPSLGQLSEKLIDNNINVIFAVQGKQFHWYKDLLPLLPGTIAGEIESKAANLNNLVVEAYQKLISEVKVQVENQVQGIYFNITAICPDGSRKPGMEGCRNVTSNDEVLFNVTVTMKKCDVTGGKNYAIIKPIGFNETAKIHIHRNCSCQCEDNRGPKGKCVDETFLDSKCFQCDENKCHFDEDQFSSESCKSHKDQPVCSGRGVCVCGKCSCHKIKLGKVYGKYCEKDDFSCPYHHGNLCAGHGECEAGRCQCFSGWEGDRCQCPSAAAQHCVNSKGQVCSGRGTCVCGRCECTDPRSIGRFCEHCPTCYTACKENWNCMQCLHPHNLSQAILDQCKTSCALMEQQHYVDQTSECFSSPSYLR

[2] = target: T2, recombinant human integrin αvβ6 (human, UniProt P18564 22-707); assay: cell-based or functional assay
T2 sequence (chain, as listed by the source limits assumed, chain 1 of 2): as the sequence (P06756 31-992 limits assumed, chain 1 of 2) above
T2 sequence (P18564 22-707 limits assumed, chain 2 of 2): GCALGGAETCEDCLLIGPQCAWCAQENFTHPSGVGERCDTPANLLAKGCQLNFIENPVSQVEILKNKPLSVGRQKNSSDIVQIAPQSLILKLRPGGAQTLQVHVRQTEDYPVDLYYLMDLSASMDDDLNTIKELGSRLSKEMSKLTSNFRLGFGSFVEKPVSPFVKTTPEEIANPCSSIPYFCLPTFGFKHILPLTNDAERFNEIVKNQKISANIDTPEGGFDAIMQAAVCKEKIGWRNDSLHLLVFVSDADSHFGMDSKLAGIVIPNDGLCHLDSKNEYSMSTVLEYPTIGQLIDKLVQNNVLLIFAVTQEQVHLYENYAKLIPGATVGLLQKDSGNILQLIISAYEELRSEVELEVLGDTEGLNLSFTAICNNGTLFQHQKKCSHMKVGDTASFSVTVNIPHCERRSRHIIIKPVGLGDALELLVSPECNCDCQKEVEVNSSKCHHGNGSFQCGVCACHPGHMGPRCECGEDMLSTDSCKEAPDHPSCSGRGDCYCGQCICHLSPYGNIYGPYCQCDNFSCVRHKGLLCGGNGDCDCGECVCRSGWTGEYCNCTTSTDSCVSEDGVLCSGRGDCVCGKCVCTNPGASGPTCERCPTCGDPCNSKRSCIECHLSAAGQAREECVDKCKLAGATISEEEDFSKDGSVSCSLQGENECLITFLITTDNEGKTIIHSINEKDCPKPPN

[3] = target: T3, recombinant human integrin αvβ1 (human, UniProt P05556 21-728); assay: ELISA on coated recombinant human integrin; 0 = no apparent binding
T3 construct: Bought; also called αvβ1 (R&D systems)
T3 sequence (chain, as listed by the source limits assumed, chain 1 of 2): as the sequence (P06756 31-992 limits assumed, chain 1 of 2) above
T3 sequence (P05556 21-728 limits assumed, chain 2 of 2): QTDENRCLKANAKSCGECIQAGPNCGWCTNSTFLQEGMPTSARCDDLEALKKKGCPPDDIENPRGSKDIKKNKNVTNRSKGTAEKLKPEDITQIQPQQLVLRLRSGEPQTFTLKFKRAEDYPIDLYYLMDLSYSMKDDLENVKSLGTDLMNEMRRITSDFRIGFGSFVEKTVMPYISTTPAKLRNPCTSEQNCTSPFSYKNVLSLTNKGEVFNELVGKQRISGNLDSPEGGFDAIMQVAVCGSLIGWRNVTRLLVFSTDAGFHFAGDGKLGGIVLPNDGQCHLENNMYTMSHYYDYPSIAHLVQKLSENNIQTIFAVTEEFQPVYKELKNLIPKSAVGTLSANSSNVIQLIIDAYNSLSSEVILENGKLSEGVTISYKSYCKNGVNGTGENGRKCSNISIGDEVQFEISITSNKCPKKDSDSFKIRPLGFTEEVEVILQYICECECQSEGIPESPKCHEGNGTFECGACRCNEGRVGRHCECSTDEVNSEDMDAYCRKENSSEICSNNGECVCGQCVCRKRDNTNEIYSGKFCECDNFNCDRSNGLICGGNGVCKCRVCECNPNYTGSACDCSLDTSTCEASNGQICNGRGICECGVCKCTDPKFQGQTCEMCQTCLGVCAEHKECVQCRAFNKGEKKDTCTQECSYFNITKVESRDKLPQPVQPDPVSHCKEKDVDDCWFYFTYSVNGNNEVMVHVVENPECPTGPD
Source text: (§1) Binding was quantified by intensity as 0-4 (0 representing no apparent binding; 4 representing robust binding) and results normalized to expression.

[4] = target: T4, recombinant human integrin αvβ3 (human, UniProt P05106 27-718); assay: as above
T4 construct: Bought; also called αvβ3 (R&D systems)
T4 sequence (chain, as listed by the source limits assumed, chain 1 of 2): as the sequence (P06756 31-992 limits assumed, chain 1 of 2) above
T4 sequence (P05106 27-718 limits assumed, chain 2 of 2): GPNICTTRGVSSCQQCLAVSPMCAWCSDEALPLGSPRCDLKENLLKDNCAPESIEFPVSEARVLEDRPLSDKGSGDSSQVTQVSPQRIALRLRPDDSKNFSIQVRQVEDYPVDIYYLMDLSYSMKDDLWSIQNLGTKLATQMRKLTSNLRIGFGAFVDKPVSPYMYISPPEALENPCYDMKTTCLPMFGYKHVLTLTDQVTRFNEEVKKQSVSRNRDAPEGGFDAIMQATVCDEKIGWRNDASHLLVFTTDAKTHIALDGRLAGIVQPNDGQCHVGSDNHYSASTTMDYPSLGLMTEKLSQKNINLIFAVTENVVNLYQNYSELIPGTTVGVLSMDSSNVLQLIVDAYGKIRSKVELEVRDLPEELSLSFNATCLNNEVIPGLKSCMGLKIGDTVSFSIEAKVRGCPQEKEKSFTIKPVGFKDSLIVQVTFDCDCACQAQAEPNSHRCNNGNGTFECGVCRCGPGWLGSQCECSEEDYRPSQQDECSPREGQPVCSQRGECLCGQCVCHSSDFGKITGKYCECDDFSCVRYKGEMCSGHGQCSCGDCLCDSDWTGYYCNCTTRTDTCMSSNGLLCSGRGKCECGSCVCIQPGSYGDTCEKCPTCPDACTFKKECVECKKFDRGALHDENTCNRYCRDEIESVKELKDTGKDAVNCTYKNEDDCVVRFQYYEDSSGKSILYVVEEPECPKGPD
Source text: as §1

[5] = target: T5, recombinant human integrin αvβ5 (human, UniProt P18084 24-719); assay: as above
T5 construct: Bought; also called αvβ5 (R&D systems)
T5 sequence (chain, as listed by the source limits assumed, chain 1 of 2): as the sequence (P06756 31-992 limits assumed, chain 1 of 2) above
T5 sequence (P18084 24-719 limits assumed, chain 2 of 2): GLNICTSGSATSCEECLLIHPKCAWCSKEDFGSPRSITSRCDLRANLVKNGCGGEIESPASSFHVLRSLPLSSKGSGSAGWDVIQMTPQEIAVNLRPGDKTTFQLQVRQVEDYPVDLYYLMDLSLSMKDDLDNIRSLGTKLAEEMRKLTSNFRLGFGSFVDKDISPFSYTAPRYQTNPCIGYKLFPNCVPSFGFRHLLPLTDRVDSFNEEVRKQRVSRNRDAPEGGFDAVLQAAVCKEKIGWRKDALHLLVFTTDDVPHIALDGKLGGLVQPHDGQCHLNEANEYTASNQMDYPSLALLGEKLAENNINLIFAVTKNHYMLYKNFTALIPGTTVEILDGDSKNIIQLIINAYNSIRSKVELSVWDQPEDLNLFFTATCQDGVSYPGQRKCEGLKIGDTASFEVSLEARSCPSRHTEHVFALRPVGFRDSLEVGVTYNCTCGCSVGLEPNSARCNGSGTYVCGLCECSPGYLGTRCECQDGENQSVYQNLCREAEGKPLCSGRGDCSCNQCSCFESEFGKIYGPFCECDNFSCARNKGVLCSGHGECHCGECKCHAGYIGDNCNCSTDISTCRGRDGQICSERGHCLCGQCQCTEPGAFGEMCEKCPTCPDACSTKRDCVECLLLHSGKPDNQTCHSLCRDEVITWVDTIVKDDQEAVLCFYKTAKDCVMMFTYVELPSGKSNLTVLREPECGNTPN
Source text: as §1

[6] = target: T1, recombinant human integrin αvβ8; assay: ELISA, Mab coated at 5 ug/ml, receptor 0.5 µg/ml in Mg buffer (1 mM Ca++ and 1 mM Mg++), detected with biotinylated anti-αv 8B8
Procedure: (§2) Binding in EDTA containing buffer defines cation-dependence because EDTA binds to Ca⁺⁺ and Mg′. Magnesium cation buffers contains 1 mM Ca⁺⁺ and 1 mM Mg⁺⁺. Here, the results are relative to anti-av, clone 11D12V2. All antibodies were coated on ELISA plates at 5 μg/ml.

[7] = target: T2, recombinant human integrin αvβ6; assay: as above
Procedure: as §2

[8] = target: T1, recombinant human integrin αvβ8; assay: ELISA: integrin coated on plate, supernatant of transfected 293 cells at 1/10 dilution, anti-mouse IgG-HRP; score normalized to expression;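 note: scale runs from 0 (no apparent binding) to 4 (robust binding), with scores adjusted for clone protein expression as determined by a murine IgG ELISA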
Source text: as §1

[9] = target: T1, recombinant human integrin αvβ8; assay: blocking of adhesion (A590) of Cho cells expressing GARP/LTGFB1 to immobilized αvβ8; antibody concentration varied; unit taken from the axis log[Agonist], (ug/ml)
Source text: (§3) Here, Cho3.2.8.1 cells were transfected with GARP and LTGFB1.

[10] = target: T2, recombinant human integrin αvβ6; assay: blocking of adhesion (A590) of Cho cells expressing GARP/LTGFB1 to immobilized αvβ6; antibody concentration varied; unit taken from the axis log[Agonist], (ug/ml)
Source text: as §3

[11] = target: T2, recombinant human integrin αvβ6; assay: competition of RGD3 with 3G9 for binding to αvβ6 (sheet title: modest cross-competition); y axis 'Relative Inhibition of avb6 binding to TGFb3 peptide'; signal falls from about 1.0 only to about 0.55 at log 4
[12] = target: T3, recombinant human integrin αvβ1; assay: ELISA, integrin coated, rabbit IgG detected with anti-rabbit HRP; relative to anti-αv (8B8) control wells
Procedure: (§4) All integrins were coated on ELISA plates at 2 mg/ml, blocked with BSA, and antibodies were allowed to bind.

[13] = target: T4, recombinant human integrin αvβ3; assay: as above
Procedure: as §4

[14] = target: T5, recombinant human integrin αvβ5; assay: as above
Procedure: as §4

[15] = target: T2, recombinant human integrin αvβ6; assay: as above
Procedure: as §4

[16] = target: T2, recombinant human integrin αvβ6; assay: ELISA on coated recombinant human integrin; 0 = no apparent binding
Source text: as §1

[17] = target: recombinant αvβ8 ectodomain (Homo sapiens (Human), UniProt P06756 31-992; P26012 43-684); assay: ELISA, Mab coated at the given concentration, αvβ8 ectodomain 0.5 µg/ml, detected with biotinylated anti-αv 8B8 and SA-HRP; specific binding minus SV5 control
Chain of recombinant αvβ8 ectodomain (P06756 31-992 limits assumed, chain 1 of 2): as the sequence (P06756 31-992 limits assumed, chain 1 of 2) above
Chain of recombinant αvβ8 ectodomain (P26012 43-684 limits assumed, chain 2 of 2): as the sequence (P26012 43-684 limits assumed, chain 2 of 2) above
Source text: As a negative control, some wells were coated with anti-SV5 at the same concentrations. Non-specific binding sites were blocked with BSA.

Binder | binding result [3] | binding result [4] | binding result [5] | binding intensity score (0-4) [8] [score 0-4] | binding result [13] | binding result [14] | binding result [16] | other results
B1 | no binding (tested: supernatant at 1/10 dilution) | no binding (tested: supernatant at 1/10 dilution) | no binding (tested: supernatant at 1/10 dilution) | 4 |  |  |  | EC50 of inhibition of TGF-β activation (TMLC luciferase reporter) of GARP/LTGFB1 Cho cells on immobilized αvβ8; unit from the axis [1]: 0.854 µg/mL; EC50 of inhibition of TGF-β activation (TMLC luciferase reporter) of GARP/LTGFB1 Cho cells on immobilized αvβ6; unit from the axis [2]: 0.412 µg/mL; Binding in Mg buffer relative to clone 68 (% compared with binding to anti-av clone 11D12V2) [6]: 98%; Binding in Mg buffer relative to clone 68 (% compared with binding to anti-av clone 11D12V2) [7]: 120%; EC50 [9]: 1.19 µg/mL; EC50 [10]: 0.479 µg/mL; LogEC50 [11]: 3.78 Log10 (ng/ml)
B2 |  |  |  |  | no binding | no binding |  | binding result [12]: no binding
B3 |  |  |  |  | no binding | no binding |  | binding result [15]: no binding
B4 | no binding (tested: supernatant at 1/10 dilution) | no binding (tested: supernatant at 1/10 dilution) | no binding (tested: supernatant at 1/10 dilution) | 2 |  |  | no binding (tested: supernatant at 1/10 dilution) | 
B5 | no binding (tested: supernatant at 1/10 dilution) | no binding (tested: supernatant at 1/10 dilution) | no binding (tested: supernatant at 1/10 dilution) | 1 |  |  | no binding (tested: supernatant at 1/10 dilution) | 
B6 |  |  |  |  |  |  |  | binding result [17]: binds
